According to doi:10.1101/2021.07.30.454553 (bioRxiv, 2021):
Like-named read-outs stand apart in the source and are kept apart here.

Experiments:
[1] = target: T1, full-length human kinesin-1 heavy chain (KIF5B) (human, UniProt P33176 1-963, LD555, LD655 or Alexa488 label (imaging assays)); assay: cell-based or functional assay
T1 sequence (looked up): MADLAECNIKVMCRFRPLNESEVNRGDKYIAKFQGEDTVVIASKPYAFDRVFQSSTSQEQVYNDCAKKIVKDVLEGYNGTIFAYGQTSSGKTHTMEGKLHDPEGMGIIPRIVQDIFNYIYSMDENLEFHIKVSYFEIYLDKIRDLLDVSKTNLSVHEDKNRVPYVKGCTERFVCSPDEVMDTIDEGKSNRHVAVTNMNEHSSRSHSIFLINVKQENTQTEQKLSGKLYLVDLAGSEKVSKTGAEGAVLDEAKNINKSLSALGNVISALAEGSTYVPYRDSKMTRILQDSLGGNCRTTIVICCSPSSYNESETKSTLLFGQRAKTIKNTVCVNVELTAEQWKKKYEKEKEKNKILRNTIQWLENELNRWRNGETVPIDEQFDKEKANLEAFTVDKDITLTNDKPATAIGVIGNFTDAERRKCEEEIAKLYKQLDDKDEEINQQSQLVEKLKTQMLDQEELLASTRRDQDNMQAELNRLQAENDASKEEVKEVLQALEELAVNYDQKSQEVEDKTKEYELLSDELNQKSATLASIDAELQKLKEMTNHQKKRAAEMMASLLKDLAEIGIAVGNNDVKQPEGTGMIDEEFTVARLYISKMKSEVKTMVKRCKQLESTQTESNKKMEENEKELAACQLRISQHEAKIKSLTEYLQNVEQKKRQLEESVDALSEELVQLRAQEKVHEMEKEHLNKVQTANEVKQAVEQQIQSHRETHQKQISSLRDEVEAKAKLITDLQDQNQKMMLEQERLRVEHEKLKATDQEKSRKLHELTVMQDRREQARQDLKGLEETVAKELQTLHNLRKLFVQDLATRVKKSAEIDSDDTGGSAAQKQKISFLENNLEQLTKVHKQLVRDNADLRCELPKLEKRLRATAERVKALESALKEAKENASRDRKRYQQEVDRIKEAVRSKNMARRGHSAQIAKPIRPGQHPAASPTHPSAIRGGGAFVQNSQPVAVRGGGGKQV

[2] = target: T1, full-length human kinesin-1 heavy chain …; assay: single-molecule colocalisation on microtubules
KIF5B^Δ1-336 = target: T2, KIF5B^Δ1-336 (human, UniProt P33176 337-963); assay: single-molecule colocalisation on microtubules
T2 sequence (looked up): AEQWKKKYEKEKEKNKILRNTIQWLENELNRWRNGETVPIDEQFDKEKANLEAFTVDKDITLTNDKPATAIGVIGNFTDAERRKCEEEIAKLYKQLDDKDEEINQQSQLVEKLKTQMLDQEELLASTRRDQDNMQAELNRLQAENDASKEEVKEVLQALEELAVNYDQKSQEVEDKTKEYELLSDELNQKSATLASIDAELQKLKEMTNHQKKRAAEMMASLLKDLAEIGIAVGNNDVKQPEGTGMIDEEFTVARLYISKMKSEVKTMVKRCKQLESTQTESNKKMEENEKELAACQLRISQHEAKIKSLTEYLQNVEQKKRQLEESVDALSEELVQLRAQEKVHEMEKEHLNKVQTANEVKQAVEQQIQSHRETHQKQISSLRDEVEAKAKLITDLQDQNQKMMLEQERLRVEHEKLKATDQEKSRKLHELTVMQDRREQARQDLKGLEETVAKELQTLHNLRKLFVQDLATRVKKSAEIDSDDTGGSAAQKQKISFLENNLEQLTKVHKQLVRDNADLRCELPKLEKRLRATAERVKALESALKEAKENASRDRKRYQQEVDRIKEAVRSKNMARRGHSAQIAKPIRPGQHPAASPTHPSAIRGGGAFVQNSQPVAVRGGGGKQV

[3] = target: T1, full-length human kinesin-1 heavy chain …; assay: single-molecule colocalisation on microtubules; remark: listed apart in the source

B1: TRAK1^1-360 (domain or fragment, human, UniProt Q9UPV9 1-360, looked up)
chain: MALVFQFGQPVRAQPLPGLCHGKLIRTNACDVCNSTDLPEVEIISLLEEQLPHYKLRADTIYGYDHDDWLHTPLISPDANIDLTTEQIEETLKYFLLCAERVGQMTKTYNDIDAVTRLLEEKERDLELAARIGQSLLKKNKTLTERNELLEEQVEHIREEVSQLRHELSMKDELLQFYTSAAEESEPESVCSTPLKRNESSSSVQNYFHLDSLQKKLKDLEEENVVLRSEASQLKTETITYEEKEQQLVNDCVKELRDANVQIASISEELAKKTEDAARQQEEITHLLSQIVDLQKKAKACAVENEELVQHLGAAKDAQRQLTAELRELEDKYAECMEMLHEAQEELKNLRNKTMPNTTS
modifications: LD555 or LD655 dye on the SNAP tag (imaging assays)
landing rate of kinesin on MTs with TRAK1 1-360 against kinesin alone [1]: 1.5 fold
landing rate of kinesin/TRAK1 1-360 complexes, increase by 50 nM MAP7 [1]: > 7 fold

B2: TRAK2^1-360 (domain or fragment, human, UniProt O60296 1-360, looked up)
chain: MSQSQNAIFTSPTGEENLMNSNHRDSESITDVCSNEDLPEVELVSLLEEQLPQYRLKVDTLFLYENQDWTQSPHQRQHASDALSPVLAEETFRYMILGTDRVEQMTKTYNDIDMVTHLLAERDRDLELAARIGQALLKRNHVLSEQNESLEEQLGQAFDQVNQLQHELCKKDELLRIVSIASEESETDSSCSTPLRFNESFSLSQGLLQLEMLQEKLKELEEENMALRSKACHIKTETVTYEEKEQQLVSDCVKELRETNAQMSRMTEELSGKSDELIRYQEELSSLLSQIVDLQHKLKEHVIEKEELKLHLQASKDAQRQLTMELHELQDRNMECLGMLHESQEEIKELRSRSGPTAHL
modifications: LD555 or LD655 dye on the SNAP tag (imaging assays)
landing rate of kinesin/TRAK2 1-360 complexes, increase by 50 nM MAP7 [1]: 2 fold

B3: TRAK1^1-400 (domain or fragment, human, UniProt Q9UPV9 1-400, looked up)
chain: MALVFQFGQPVRAQPLPGLCHGKLIRTNACDVCNSTDLPEVEIISLLEEQLPHYKLRADTIYGYDHDDWLHTPLISPDANIDLTTEQIEETLKYFLLCAERVGQMTKTYNDIDAVTRLLEEKERDLELAARIGQSLLKKNKTLTERNELLEEQVEHIREEVSQLRHELSMKDELLQFYTSAAEESEPESVCSTPLKRNESSSSVQNYFHLDSLQKKLKDLEEENVVLRSEASQLKTETITYEEKEQQLVNDCVKELRDANVQIASISEELAKKTEDAARQQEEITHLLSQIVDLQKKAKACAVENEELVQHLGAAKDAQRQLTAELRELEDKYAECMEMLHEAQEELKNLRNKTMPNTTSRRYHSLGLFPMDSLAAEIEGTMRKELQLEEAESPDITHQK
modifications: LD555 or LD655 dye on the SNAP tag
binding result [2]: binds
binding result (KIF5B^Δ1-336): binds

B4: TRAK2^1-400 (domain or fragment, human, UniProt O60296 1-400, looked up)
chain: MSQSQNAIFTSPTGEENLMNSNHRDSESITDVCSNEDLPEVELVSLLEEQLPQYRLKVDTLFLYENQDWTQSPHQRQHASDALSPVLAEETFRYMILGTDRVEQMTKTYNDIDMVTHLLAERDRDLELAARIGQALLKRNHVLSEQNESLEEQLGQAFDQVNQLQHELCKKDELLRIVSIASEESETDSSCSTPLRFNESFSLSQGLLQLEMLQEKLKELEEENMALRSKACHIKTETVTYEEKEQQLVSDCVKELRETNAQMSRMTEELSGKSDELIRYQEELSSLLSQIVDLQHKLKEHVIEKEELKLHLQASKDAQRQLTMELHELQDRNMECLGMLHESQEEIKELRSRSGPTAHLYFSQSYGAFTGESLAAEIEGTMRKKLSLDEESSLFKQKAQ
modifications: LD555 or LD655 dye on the SNAP tag
binding result [3]: binds

B5: full-length TRAK1^1-953 (natural protein, human, UniProt Q9UPV9 1-953, looked up)
chain: MALVFQFGQPVRAQPLPGLCHGKLIRTNACDVCNSTDLPEVEIISLLEEQLPHYKLRADTIYGYDHDDWLHTPLISPDANIDLTTEQIEETLKYFLLCAERVGQMTKTYNDIDAVTRLLEEKERDLELAARIGQSLLKKNKTLTERNELLEEQVEHIREEVSQLRHELSMKDELLQFYTSAAEESEPESVCSTPLKRNESSSSVQNYFHLDSLQKKLKDLEEENVVLRSEASQLKTETITYEEKEQQLVNDCVKELRDANVQIASISEELAKKTEDAARQQEEITHLLSQIVDLQKKAKACAVENEELVQHLGAAKDAQRQLTAELRELEDKYAECMEMLHEAQEELKNLRNKTMPNTTSRRYHSLGLFPMDSLAAEIEGTMRKELQLEEAESPDITHQKRVFETVRNINQVVKQRSLTPSPMNIPGSNQSSAMNSLLSSCVSTPRSSFYGSDIGNVVLDNKTNSIILETEAADLGNDERSKKPGTPGTPGSHDLETALRRLSLRRENYLSERRFFEEEQERKLQELAEKGELRSGSLTPTESIMSLGTHSRFSEFTGFSGMSFSSRSYLPEKLQIVKPLEGSATLHHWQQLAQPHLGGILDPRPGVVTKGFRTLDVDLDEVYCLNDFEEDDTGDHISLPRLATSTPVQHPETSAHHPGKCMSQTNSTFTFTTCRILHPSDELTRVTPSLNSAPTPACGSTSHLKSTPVATPCTPRRLSLAESFTNTRESTTTMSTSLGLVWLLKERGISAAVYDPQSWDRAGRGSLLHSYTPKMAVIPSTPPNSPMQTPTSSPPSFEFKCTSPPYDNFLASKPASSILREVREKNVRSSESQTDVSVSNLNLVDKVRRFGVAKVVNSGRAHVPTLTEEQGPLLCGPPGPAPALVPRGLVPEGLPLRCPTVTSAIGGLQLNSGIRRNRSFPTMVGSSMQMKAPVTLTSGILMGAKLSKQTSLR
modifications: LD655 dye on the SNAP tag (imaging assays)
binding result [3]: binds

B6: full-length TRAK2^1-914 (natural protein, human, UniProt O60296 1-914, looked up)
chain: MSQSQNAIFTSPTGEENLMNSNHRDSESITDVCSNEDLPEVELVSLLEEQLPQYRLKVDTLFLYENQDWTQSPHQRQHASDALSPVLAEETFRYMILGTDRVEQMTKTYNDIDMVTHLLAERDRDLELAARIGQALLKRNHVLSEQNESLEEQLGQAFDQVNQLQHELCKKDELLRIVSIASEESETDSSCSTPLRFNESFSLSQGLLQLEMLQEKLKELEEENMALRSKACHIKTETVTYEEKEQQLVSDCVKELRETNAQMSRMTEELSGKSDELIRYQEELSSLLSQIVDLQHKLKEHVIEKEELKLHLQASKDAQRQLTMELHELQDRNMECLGMLHESQEEIKELRSRSGPTAHLYFSQSYGAFTGESLAAEIEGTMRKKLSLDEESSLFKQKAQQKRVFDTVRIANDTRGRSISFPALLPIPGSNRSSVIMTAKPFESGLQQTEDKSLLNQGSSSEEVAGSSQKMGQPGPSGDSDLATALHRLSLRRQNYLSEKQFFAEEWQRKIQVLADQKEGVSGCVTPTESLASLCTTQSEITDLSSASCLRGFMPEKLQIVKPLEGSQTLYHWQQLAQPNLGTILDPRPGVITKGFTQLPGDAIYHISDLEEDEEEGITFQVQQPLEVEEKLSTSKPVTGIFLPPITSAGGPVTVATANPGKCLSCTNSTFTFTTCRILHPSDITQVTPSSGFPSLSCGSSGSSSSNTAVNSPALSYRLSIGESITNRRDSTTTFSSTMSLAKLLQERGISAKVYHSPISENPLQPLPKSLAIPSTPPNSPSHSPCPSPLPFEPRVHLSENFLASRPAETFLQEMYGLRPSRNPPDVGQLKMNLVDRLKRLGIARVVKNPGAQENGRCQEAEIGPQKPDSAVYLNSGSSLLGGLRRNQSLPVIMGSFAAPVCTSSPKMGVLKED
modifications: LD655 dye on the SNAP tag (imaging assays)
binding result [3]: binds
